Test results reported in PMC5765006 (2018).

Target: soluble extracellular domain of human TM (Homo sapiens (Human), UniProt P07204)
Assay: competition pull-down (native Ang1 inhibits thrombin/TM co-precipitation on Ni-NTA, western blot); direct pull-down only with BowAng1; indirect readout: displacement of thrombin (5 nM) from soluble TM

soluble extracellular domain of human TM, sequence (P07204 19-515): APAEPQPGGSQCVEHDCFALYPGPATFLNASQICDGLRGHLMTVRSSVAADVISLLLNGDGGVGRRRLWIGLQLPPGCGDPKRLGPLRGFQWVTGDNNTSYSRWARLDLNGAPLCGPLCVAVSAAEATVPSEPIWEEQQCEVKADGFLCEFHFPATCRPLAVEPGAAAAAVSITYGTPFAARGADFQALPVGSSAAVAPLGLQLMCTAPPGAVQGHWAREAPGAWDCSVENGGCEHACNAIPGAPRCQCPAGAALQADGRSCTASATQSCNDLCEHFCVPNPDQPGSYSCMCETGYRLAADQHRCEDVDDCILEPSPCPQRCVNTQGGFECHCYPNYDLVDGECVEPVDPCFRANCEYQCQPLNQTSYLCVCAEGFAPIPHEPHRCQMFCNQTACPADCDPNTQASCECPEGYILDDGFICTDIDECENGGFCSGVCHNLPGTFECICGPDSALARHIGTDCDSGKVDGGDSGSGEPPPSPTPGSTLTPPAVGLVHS

B1: native human Ang1 (protein)
chain: HIGCSNQRRSPENSGRRYNRIQHGQCAYTFILPEHDGNCRESTTDQYNTNALQRDAPHVEPDFSSQKLQHLEHVMENYTQWLQKLENYIVENMKSEMAQIQQNAVQNHTATMLEIGTSLLSQTAEQTRKLTDVETQVLNQTSRLEIQLLENSLSTYKLEKQLLQQTNEILKIHEKNSLLEHKILEMEGKHKEELDTLKEEKENLQGLVTRQTYIIQELEKQLNRATTNNSVLQKQQLELMDTVHNLVNLCTKEGVLLKGGKREEEKPFRDCADVYQAGFNKSGIYTIYINNMPEPKKVFCNMDVNGGGWTVIQHREDGSLDFQRGWKEYKMGFGNPSGEYWLGNEFIFAITSQRQYMLRIELMDWEGNRAYSQYDRFHIGNEKQNYRLYLKGHTGTAGKQSSLILHGADFSTKDADNDNCMCKCALMLTGGWWFDACGPSNLNGMFYTAGQNHGKLNGIKWHYFKGPSYSLRSTTMMIRPLDF
B1: binds.
